The text below walks through data of IntAct's records for PubMed 23873930.

B1: Transcriptional coactivator YAP1 (Homo sapiens), P46937-3 (parent)
chain: MDPGQQPPPQPAPQGQGQPPSQPPQGQGPPSGPGQPAPAATQAAPQAPPAGHQIVHVRGDSETDLEALFNAVMNPKTANVPQTVPMRLRKLPDSFFKPPEPKSHSRQASTDAGTAGALTPQHVRAHSSPASLQLGAVSPGTLTPTGVVSGPAATPTAQHLRQSSFEIPDDVPLPAGWEMAKTSSGQRYFLNHIDQTTTWQDPRKAMLSQMNVTAPTSPPVQQNMMNSASAMNQRISQSAPVKQPPPLAPQSPQGGVMGGSNSNQQQQMRLQQLQMEKERLRLKQQELLRQVRPQELALRSQLPTLEQDGGTQNPVSSPGMSQELRTMTTNSSDPFLNSGTYHSRDESTDSGLSMSSYSVPRTPDDFLNSVDEMDTGDTINQSTLPSQQNRFPDYLEAIPGTNVDLGTLEGDGMNIEGEELMPSLQEALSSDILNDMESVLAATKLDKESFLTWL
partner: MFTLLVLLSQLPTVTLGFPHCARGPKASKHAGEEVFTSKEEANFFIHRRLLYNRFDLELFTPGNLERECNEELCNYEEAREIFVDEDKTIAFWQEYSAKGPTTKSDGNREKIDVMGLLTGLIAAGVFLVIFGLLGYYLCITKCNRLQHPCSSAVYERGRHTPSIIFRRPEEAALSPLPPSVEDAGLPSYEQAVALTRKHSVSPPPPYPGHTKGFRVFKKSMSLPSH
B2: Transmembrane gamma-carboxyglutamic acid protein 4 (Homo sapiens), Q9BZD6 (parent)
chain: B1 partner
partner: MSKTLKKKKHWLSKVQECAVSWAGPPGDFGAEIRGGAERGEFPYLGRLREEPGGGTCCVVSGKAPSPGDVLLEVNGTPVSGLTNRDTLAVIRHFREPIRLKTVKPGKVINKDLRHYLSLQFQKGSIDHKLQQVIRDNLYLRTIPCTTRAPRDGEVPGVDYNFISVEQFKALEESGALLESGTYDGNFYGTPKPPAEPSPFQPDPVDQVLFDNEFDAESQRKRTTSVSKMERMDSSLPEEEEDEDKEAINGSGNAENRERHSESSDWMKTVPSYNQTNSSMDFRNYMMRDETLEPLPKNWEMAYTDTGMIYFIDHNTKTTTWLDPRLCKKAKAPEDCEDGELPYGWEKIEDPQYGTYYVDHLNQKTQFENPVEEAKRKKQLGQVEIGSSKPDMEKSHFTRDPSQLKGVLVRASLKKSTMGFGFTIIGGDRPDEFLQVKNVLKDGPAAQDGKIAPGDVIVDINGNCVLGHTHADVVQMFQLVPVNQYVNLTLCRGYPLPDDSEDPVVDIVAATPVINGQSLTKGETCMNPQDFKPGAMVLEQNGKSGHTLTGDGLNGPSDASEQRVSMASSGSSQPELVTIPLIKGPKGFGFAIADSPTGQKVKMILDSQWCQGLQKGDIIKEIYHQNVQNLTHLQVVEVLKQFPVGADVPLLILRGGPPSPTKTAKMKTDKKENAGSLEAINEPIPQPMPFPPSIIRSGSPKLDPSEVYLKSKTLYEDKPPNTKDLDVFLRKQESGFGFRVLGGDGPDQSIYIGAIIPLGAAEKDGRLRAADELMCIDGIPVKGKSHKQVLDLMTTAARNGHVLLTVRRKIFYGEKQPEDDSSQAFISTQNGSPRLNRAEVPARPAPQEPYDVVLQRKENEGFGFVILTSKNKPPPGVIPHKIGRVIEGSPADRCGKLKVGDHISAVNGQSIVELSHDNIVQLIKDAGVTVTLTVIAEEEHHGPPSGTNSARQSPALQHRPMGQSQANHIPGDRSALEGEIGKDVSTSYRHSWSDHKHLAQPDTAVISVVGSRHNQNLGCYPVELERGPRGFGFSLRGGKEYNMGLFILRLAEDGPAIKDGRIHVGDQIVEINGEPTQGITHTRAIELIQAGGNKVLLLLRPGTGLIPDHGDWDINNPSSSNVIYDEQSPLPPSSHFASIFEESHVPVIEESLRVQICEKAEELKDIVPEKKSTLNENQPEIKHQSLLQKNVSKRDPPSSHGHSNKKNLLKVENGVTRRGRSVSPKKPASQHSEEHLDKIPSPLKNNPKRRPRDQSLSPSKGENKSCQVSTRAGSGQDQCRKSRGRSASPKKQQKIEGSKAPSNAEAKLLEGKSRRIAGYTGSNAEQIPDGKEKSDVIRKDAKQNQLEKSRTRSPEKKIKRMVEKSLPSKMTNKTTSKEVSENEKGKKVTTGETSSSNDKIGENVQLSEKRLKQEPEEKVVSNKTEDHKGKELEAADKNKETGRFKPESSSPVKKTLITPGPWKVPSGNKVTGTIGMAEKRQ
B3: Transmembrane gamma-carboxyglutamic acid protein 4 (Homo sapiens), Q9BZD6 (parent)
chain: B1 partner

In the first test the parent is B1. The settings on record: with tmg4_human PRRG4, Q9BZD6.
For W199A;P202A, the “effect of a mutation on the interaction” value is reported as “disrupting interaction strength”.
As for S127A, the “effect of a mutation on the interaction” value was “with no effect”.

Variants of B2 are the subject of a further test. The note with it: with magi3_human MAGI3, Q5TCQ9.
As for Y189A, the “effect of a mutation on the interaction” value is on record as “disrupting interaction strength”.
The same measure, in the same setting: the entry for Y207A is “with no effect”.

In a further test the parent is B3. The settings on record: with Magi1, Q6RHR9-1.
Chain of Magi1, Q6RHR9-1 (Q6RHR9 whole entry): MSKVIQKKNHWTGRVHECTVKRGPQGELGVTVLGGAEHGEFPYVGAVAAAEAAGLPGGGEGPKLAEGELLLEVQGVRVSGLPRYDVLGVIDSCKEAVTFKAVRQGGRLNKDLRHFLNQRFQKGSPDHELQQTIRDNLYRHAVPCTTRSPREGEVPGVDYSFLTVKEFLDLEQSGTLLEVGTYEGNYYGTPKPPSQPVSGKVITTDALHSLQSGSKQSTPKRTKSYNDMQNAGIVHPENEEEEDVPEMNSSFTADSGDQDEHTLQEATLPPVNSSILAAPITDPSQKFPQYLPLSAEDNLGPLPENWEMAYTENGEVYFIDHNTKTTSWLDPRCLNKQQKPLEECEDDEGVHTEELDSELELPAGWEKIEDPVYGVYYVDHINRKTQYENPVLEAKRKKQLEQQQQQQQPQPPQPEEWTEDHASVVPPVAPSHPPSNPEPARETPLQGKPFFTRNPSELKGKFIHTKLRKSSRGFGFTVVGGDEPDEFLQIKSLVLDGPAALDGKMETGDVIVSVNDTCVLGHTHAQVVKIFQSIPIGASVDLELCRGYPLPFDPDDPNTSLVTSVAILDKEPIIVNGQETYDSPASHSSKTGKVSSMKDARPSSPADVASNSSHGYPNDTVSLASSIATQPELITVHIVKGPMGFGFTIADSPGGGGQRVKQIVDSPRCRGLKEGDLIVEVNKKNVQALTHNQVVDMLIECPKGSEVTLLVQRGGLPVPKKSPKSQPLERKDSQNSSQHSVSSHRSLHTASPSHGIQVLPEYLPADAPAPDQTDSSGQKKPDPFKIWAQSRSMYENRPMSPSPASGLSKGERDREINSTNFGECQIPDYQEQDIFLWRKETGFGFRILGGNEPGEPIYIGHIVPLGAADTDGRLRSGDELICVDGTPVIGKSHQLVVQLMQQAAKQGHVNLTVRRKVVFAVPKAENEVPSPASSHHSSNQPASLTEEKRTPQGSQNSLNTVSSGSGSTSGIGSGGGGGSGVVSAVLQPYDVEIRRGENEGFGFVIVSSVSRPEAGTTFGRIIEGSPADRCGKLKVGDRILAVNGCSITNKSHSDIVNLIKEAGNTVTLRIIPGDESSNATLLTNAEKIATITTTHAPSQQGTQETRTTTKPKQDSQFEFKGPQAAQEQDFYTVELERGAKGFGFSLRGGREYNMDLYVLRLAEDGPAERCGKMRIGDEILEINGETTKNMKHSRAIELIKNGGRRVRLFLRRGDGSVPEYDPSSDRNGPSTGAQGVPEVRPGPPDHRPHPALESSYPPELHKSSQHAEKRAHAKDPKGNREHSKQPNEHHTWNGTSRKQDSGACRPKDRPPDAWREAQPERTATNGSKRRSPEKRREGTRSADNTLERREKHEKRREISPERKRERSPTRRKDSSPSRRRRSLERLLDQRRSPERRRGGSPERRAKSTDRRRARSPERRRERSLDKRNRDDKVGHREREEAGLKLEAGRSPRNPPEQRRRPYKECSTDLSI
In the case of Y189A, the “effect of a mutation on the interaction” value is “disrupting interaction strength”.
Still for that read-out and setting: with Y207A the entry was “decreasing interaction strength”.

Variants of B3 are the subject of another test. The settings on record: with wwtr1_human WWTR1, Q9GZV5.
Chain of wwtr1_human WWTR1, Q9GZV5 (Q9GZV5 whole entry): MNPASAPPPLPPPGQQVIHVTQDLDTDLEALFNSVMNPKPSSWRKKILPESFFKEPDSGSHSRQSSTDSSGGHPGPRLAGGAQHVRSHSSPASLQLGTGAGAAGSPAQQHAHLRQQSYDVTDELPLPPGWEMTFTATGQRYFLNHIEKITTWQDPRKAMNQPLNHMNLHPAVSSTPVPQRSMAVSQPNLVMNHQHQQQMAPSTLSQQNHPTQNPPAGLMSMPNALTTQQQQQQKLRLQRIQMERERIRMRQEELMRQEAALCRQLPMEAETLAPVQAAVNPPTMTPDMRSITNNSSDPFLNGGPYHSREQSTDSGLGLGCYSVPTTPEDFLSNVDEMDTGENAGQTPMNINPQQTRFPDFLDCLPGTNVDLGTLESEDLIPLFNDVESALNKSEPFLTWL
As for Y189A, the “effect of a mutation on the interaction” value is given as “disrupting interaction strength”.
As for Y207A, the “effect of a mutation on the interaction” value is “with no effect”.

The variants in a further test derive from B3. The note with it: with YAP1, P46937-3.
As for Y189A, the “effect of a mutation on the interaction” value is given as “disrupting interaction strength”.
Take Y207A: the “effect of a mutation on the interaction” value was “with no effect”.

In another test the parent is B3. The note with it: with ned4l_human NEDD4L.
Take Y189A: the “effect of a mutation on the interaction” value was “disrupting interaction strength”.
For the variant Y207A, the “effect of a mutation on the interaction” value is reported as “with no effect”.

The variants in another test derive from B3. The settings on record: with nedd4_human NEDD4, P46934.
Chain of nedd4_human NEDD4, P46934 (P46934 whole entry): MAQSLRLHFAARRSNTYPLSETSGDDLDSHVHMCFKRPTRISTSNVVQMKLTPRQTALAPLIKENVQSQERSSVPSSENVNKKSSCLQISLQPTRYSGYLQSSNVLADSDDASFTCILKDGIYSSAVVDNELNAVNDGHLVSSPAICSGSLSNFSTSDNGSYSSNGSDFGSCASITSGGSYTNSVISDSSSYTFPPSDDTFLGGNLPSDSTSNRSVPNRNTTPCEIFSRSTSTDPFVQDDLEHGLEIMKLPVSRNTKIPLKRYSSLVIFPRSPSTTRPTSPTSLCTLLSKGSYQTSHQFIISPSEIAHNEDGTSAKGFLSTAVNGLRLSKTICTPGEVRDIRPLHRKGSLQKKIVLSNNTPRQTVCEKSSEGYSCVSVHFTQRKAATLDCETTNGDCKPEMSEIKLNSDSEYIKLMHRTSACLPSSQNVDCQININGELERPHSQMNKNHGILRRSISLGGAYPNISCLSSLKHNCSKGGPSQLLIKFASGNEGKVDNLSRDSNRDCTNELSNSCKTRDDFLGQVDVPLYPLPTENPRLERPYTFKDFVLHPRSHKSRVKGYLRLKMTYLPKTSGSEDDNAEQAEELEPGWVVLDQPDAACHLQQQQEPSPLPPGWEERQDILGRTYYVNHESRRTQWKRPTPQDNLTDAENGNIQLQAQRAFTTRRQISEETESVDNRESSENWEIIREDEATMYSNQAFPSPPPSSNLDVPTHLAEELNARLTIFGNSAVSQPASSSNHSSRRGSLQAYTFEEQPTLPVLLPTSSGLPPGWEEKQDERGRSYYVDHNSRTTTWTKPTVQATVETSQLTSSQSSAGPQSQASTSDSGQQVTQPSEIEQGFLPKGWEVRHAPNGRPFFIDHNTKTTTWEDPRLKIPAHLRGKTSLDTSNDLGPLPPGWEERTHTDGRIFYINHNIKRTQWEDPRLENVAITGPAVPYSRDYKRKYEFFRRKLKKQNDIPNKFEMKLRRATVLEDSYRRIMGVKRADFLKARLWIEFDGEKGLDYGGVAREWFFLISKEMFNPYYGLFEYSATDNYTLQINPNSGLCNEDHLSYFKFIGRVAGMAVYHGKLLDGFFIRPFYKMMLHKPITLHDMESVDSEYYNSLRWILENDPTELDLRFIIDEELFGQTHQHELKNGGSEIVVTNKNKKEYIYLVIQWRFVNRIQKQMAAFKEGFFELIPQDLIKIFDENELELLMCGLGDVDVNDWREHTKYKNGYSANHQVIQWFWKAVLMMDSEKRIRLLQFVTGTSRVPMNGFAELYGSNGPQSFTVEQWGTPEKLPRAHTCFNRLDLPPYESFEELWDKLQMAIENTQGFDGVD
Regarding Y189A, the “effect of a mutation on the interaction” value is reported as “disrupting interaction strength”.
Regarding Y207A, the “effect of a mutation on the interaction” value is “with no effect”.
